The target of the data set is T1, sN-TALER V.2 (synthetic).
T1 chain: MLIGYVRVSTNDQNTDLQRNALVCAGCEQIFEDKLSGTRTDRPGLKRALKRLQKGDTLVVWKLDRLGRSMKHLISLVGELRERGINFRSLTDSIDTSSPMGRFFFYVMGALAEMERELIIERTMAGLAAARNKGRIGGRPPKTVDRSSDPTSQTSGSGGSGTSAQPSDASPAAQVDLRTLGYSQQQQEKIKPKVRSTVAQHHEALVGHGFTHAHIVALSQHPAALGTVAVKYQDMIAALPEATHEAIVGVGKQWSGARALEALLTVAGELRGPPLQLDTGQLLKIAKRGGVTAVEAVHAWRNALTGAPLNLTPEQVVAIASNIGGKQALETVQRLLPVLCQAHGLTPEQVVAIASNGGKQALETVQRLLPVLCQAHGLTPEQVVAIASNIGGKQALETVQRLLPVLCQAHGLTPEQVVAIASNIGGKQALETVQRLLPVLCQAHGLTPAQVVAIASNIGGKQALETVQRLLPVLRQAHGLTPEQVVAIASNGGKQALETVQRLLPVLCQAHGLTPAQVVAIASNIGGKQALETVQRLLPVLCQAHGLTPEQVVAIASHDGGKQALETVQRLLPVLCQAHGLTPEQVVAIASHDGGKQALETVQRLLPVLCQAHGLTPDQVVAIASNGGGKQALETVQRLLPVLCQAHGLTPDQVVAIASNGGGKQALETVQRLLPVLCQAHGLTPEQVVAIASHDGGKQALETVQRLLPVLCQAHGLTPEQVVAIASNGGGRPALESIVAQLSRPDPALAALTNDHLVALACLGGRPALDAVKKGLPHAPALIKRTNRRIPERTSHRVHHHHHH
Description: cell_activity; E. coli. Here is the method: The co-transformed bacteria were plated on media with chloramphenicol, kanamycin, and X-gal then incubated at 37° C. for 18 to 36 hours. Control samples consisted of transformations using the reporter construct alone. Control transformants were similarly plated. The bacterial transformation protocol was either heat shock or electroporation per standard molecular biology techniques.
For each of these N-TALER chimera expression constructs, from one to three independent clones were selected for plasmid purification. These N-TALER chimera expression constructs were co-transformed with five of the N-TALER reporter constructs, as indicated in Table 15. […] In contrast to the result for pN-TALER N4.2.2, the chimera sN-TALER N4.2.2, with the same truncation point but a specific recombinase catalytic domain, reporters with 20, 24, or 40 bp of TALER central sequence length were efficiently recombined (score of 1) while reporters with 30 or 50 bp of TALER central sequence length were not recombined (score of 5). For the chimera sN-TALER N4.2, reporters with 20, 24, or 40 bp of TALER central sequence length were efficiently recombined (score of 1); the reporter with 30 bp of TALER central sequence length was poorly recombined (score of 3); and the reporter with 50 bp of TALER central sequence length was not recombined (score of 5). For the chimera pN-TALER N4.2, the recombination efficiency on the reporters tested varied from intermediate (scores of 3 and 4) to none (score of 5). […] In contrast to the result for sN-TALER N3.2, the chimera pN-TALER N3.2, with the same truncation point but a permissive recombinase catalytic domain, recombination efficiency on the reporters tested varied from efficient (scores of 1.5, 2, and 3) to none (score of 5). For both chimeras sN-TALER V.2 and pN-TALER V.2, there was efficient recombination (scores of 1, 1.5, and 2) of the 5 N-TALER reporter constructs tested.

B1: Gin18TALE+1 (dsDNA)
DNA 1: AGAAGGTATTTATATCCAAAACCATGGTTTACAATATAAATACCTTCT
DNA 2: AGAAGGTATTTATATTGTAAACCATGGTTTTGGATATAAATACCTTCT
Take B1: the activity is 1 score.
